Source: US20260240831A1, “CANCER STRATIFICATION AND TREATMENT” (Deutsches Krebsforschungszentrum Stiftung des öffentlichen …, priority 2023, published 2026)
Entries after “also recorded” stand apart in the source; their conditions may differ.

B1: SFRP1: secreted Wnt antagonist; human SFRP1 cloned downstream of the TCF/Lef promoter, lentivirally overexpressed in GBM cells (protein, UniProt Q8N474 32-314, looked up)
Secreted frizzled-related …: SEYDYVSFQSDIGPYQSGRFYTKPPQCVDIPADLRLCHNVGYKKMVLPNLLEHETMAEVKQQASSWVPLLNKNCHAGTQVFLCSLFAPVCLDRPIYPCRWLCEAVRDSCEPVMQFFGFYWPEMLKCDKFPEGDVCIAMTPPNATEASKPQGTTVCPPCDNELKSEAIIEHLCASEFALRMKIKEVKKENGDKKIVPKKKKPLKLGPIKKKDLKKLVLYLKNGADCPCHQLDNLSHHFLIMGRKVKSQYLLTAIHKWDKKNKEFKNFMKKMKNHECPTFQSVFK
B2: NOTUM: Wnt antagonist notum polypeptide (Genbank Acc No. NP_848588.3), overexpressed in PDX GBM cells (protein, UniProt Q6P988 20-496, looked up)
Palmitoleoyl-protein …: SEGRKTWRRRGQQPPPPPRTEAAPAAGQPVESFPLDFTAVEGNMDSFMAQVKSLAQSLYPCSAQQLNEDLRLHLLLNTSVTCNDGSPAGYYLKESRGSRRWLLFLEGGWYCFNRENCDSRYDTMRRLMSSRDWPRTRTGTGILSSQPEENPYWWNANMVFIPYCSSDVWSGASSKSEKNEYAFMGALIIQEVVRELLGRGLSGAKVLLLAGSSAGGTGVLLNVDRVAEQLEKLGYPAIQVRGLADSGWFLDNKQYRHTDCVDTITCAPTEAIRRGIRYWNGVVPERCRRQFQEGEEWNCFFGYKVYPTLRCPVFVVQWLFDEAQLTVDNVHLTGQPVQEGLRLYIQNLGRELRHTLKDVPASFAPACLSHEIIIRSHWTDVQVKGTSLPRALHCWDRSLHDSHKASKTPLKGCPVHLVDSCPWPHCNPSCPTVRDQFTGQEMNVAQFLMHMGFDMQTVAQPQGLEPSELLGMLSNGS

What was measured:
[1] = test system: GBM cells for SFRP1 overexpression; experiment: SFRP1 inhibitor treatment of tumour-bearing human brain organoids, KI-67 immunohistochemistry; type: cell-based; conditions: 25 μM, 2 days, vs DMSO control; SFRP1-overexpressing GBM cells in human brain organoids
Procedure: Lentivirally transduced GBM cells for SFRP1 overexpression were injected into day 116-old human brain organoids and cultured in brain Organoid Differentiation Medium with Vitamin A. Injected organoids were maintained for 15 days on an orbital shaker (70 RPM) at 5% CO2 and 37° C. After 15 days, organoids were transferred to culturing medium supplemented with 25 μM of SFRP1 inhibitor WAY-316606 or 25 μM DMSO as a control. Tumour-bearing organoids were maintained for 2 more days and then fixed with 4% formaldehyde for 1 hour at 4° C. on a roller. Fixed organoids were first placed in 10% sucrose in PBS until tissues sank, then transferred to 30% sucrose in PBS. Organoids were then embedded in OCT compound (Tissue-Tek). […]
Confocal images of human brain organoids injected with GBM m-Cherry- and sFRP1-expressing cells that were treated with DMSO or sFRP1 inhibitor. Organoids were stained against Ki67 and mCherry and Ki67+/mCherry+ cells were quantified. […] The tumor origin of segmented cells was determined by assessing background corrected mean fluorescence intensities of the 2D integrated mCherry signal. The count of detected Ki67+/mCherry+ cells was then normalized to the imaged organoid volume yielding a density metric representing cycling tumor cells in both WAY inhibitor treated and DMSO control samples.

PDX GBMs [2] = experiment: Tumor IHC morphology of SFRP1-overexpressing PDX; type: in vivo; conditions: mouse cortex, vs control Wnt-reporter PDX
PDX GBMs [3] = experiment: scRNA-seq with ptalign cell states of Wnt-antagonist-overexpressing PDX samples; type: in vivo, mouse; conditions: for Activation state (ptalign cell state) / tumor Differentiation (ptalign aligned pseudotime) / tumor Quiescence (ptalign cell state, incl. astroQ): PDX vs control Wnt-reporter PDX
Procedure: For isolation of the xenografted human GBM cells, tumor bearing mouse brains were dissected and single cell suspension was prepared using Brain Tumor Dissociation Kit (P) and gentleMACS Octo Dissociator with Heaters (Miltenyi) according to manufacturer's instructions. mCherry+ cell population was index sorted into 384 well-plates (Eppendorf Lobind). Microplates containing cell lysates were briefly centrifuged, snap frozen on dry ice and were stored at −80° C. Sytox Blue (Life Technologies, 1:1000) was used in all experiments as a dead cell indicator. Index sorting of single cells as well as sorting of bulk samples was carried out using a 100 micron nozzle at a BD FACSAria II or BD FACSAria Fusion at the Flow Cytometry Core Facility at the DKFZ.
Single cell RNA-sequencing libraries from patient-derived xenografts were prepared using Smart-seq3 platform as previously described (Hagemann-Jensen, Nature Biotechnology, 2020) with minor modifications. The protocol was automated and miniaturized by incorporating liquid handling platforms including Mosquito HV (STPLabtech), Mantix (Formulatrix) and Viaflo 384 (Integra). Briefly, plates were incubated at 72° C. for 10 min to facilitate lysis and denaturation of secondary structures in the RNA. Lysed cells were subjected to reverse transcription in 2 μl using Maxima H-minus reverse transcriptase (Thermo Scientific), an oligo(dT) primer and a template-switching oligonucleotide encompassing an 8-bp unique molecular identifier (IDT). In a randomly selected set of wells, we included ERCC Spike-ins (Ambion) at a 1:2500000 dilution. Full length cDNAs were amplified for 22 cycles of PCR using KAPA HiFi DNA polymerase (KAPA Biosystems). cDNA samples were purified with Ampure XP beads at a 1:0.8 ratio and cDNA quality in randomly selected 10 wells/plate was assessed on a High Sensitivity Bioanalyzer chip (Agilent). cDNA concentrations were quantified using Quant-it PicoGreen dsDNA Assay kit (Thermo Scientific) and Synergy LX multi-mode microplate reader (Biotek). cDNAs were normalized to 250-500 pg μl^−1. 100-200 pg of cDNA per sample was used for tagmentation in 1.2 μl using Illumina XT DNA sample preparation kit. Libraries were finally amplified for 11 cycles of PCR in 4 μl using custom-designed Nextera index primers containing 8-bp index barcode sequences with a minimal Levenshtein distance of 4 as previously published (Buenrostro et al., Nature, 2015). Samples were purified with Ampure XP beads at a 1:0.8 ratio and DNA quality in randomly selected 10 wells/plate was assessed on a High Sensitivity Bioanalyzer chip (Agilent). Libraries were quantified as mentioned above and normalized libraries were equimolarly pooled and purified one last time at a 1:0.8 ratio. Prior to sequencing, final library concentration was determined using Qubit dsDNA High Sensitivity Assay kit (Thermo Scientific) and Qubit fluorometer (Invitrogen) and the average fragment size was calculated on a High Sensitivity Bioanalyzer chip (Agilent). Libraries with 1% spiked-in PhiX control (Illumina) were sequenced at the 75-bp paired end on a high output flow cell using an Illumina NextSeq550 instrument at a sequencing depth of ~1 M reads per cell at the sequencing open lab at the DKFZ.
In sequence alignment, the position of one query sequence in a larger reference sequence is ascertained by scoring local sequence similarity until an optimal match is found. We employ a conceptually similar strategy to infer a given query cell's optimal positioning in the space of a reference pseudotime trajectory in a method we call ptalign. The ptalign program requires four central inputs: a query counts table, a reference counts table, a reference pseudotime mapping, and a set of genes capturing the reference pseudotime trajectory. Query cells are then placed along the reference pseudotime according to the dynamic of the correlation of their gene expression along the trajectory genes. […]

T6 PDA = experiment: scRNA-seq with ptalign cell states of SFRP1-overexpressing T6 PDA in human cortical organoids; type: cell-based; conditions: 2-week PDA replicates, compared with PDX (not shown)
Procedure: For injection of lentivirally transduced primary GBM cells into human brain organoids, 3×10^4 cells were cultured as single cell suspension overnight. Newly formed spheres were resuspended in 1 μl of Differentiation Medium with vitamin A, loaded into a NanoFil syringe and injected into the core of 2 month-old organoids under a dissection microscope. Tumor bearing organoids were maintained in Differentiation Medium with vitamin A on an orbital shaker (70 RPM) for 15 days at 5% CO2 and 37° C.
In sequence alignment, the position of one query sequence in a larger reference sequence is ascertained by scoring local sequence similarity until an optimal match is found. We employ a conceptually similar strategy to infer a given query cell's optimal positioning in the space of a reference pseudotime trajectory in a method we call ptalign. The ptalign program requires four central inputs: a query counts table, a reference counts table, a reference pseudotime mapping, and a set of genes capturing the reference pseudotime trajectory. Query cells are then placed along the reference pseudotime according to the dynamic of the correlation of their gene expression along the trajectory genes. […] The quality of an assigned pseudotime is determined via the computation of a dynamic time warping (DTW) matrix over the pseudotime-binned reference and the equally binned query. […]

PDX GBMs [4] = experiment: Survival of mice bearing Wnt-antagonist-overexpressing T6 PDX GBM; type: in vivo, mouse; conditions: for overall survival: overexpression under TCF/Lef promoter in PDX vs Wnt-reporter controls
Excerpt: We identified the secreted Wnt antagonist SFRP1 as being implicated in the Q-A transition in the healthy SVZ. […] Similarly, [22] reports a role of SFRP1 in regulating the activation of human NSCs, and data from our own lab implicates its most-conserved paralog, SFRP5, in the activation of murine NSCs. Following these evidences and in order to target Wnt-active tumor cells, we cloned human SFRP1 downstream of the TCF/Lef promoter and generated T6 PDA and PDX tumors as outlined previously.
To allow sorting of human GBM cells, cells were infected with the 7TGC (Addgene plasmid #24304) lentiviral vector at a multiplicity of infection (MOI) of 5. Expression of the transduction marker (mCherry) was confirmed by FACS analysis. Second-generation, self-inactivating, replication deficient lentiviral particles were produced, purified and titrated as described previously ([32]).
For ortotopic injection of lentivirally transduced primary GBM cells into the mouse brain, 5×10^5 cells were cultured as single cell suspension overnight. Newly formed spheres were resuspended in 2 μl of Matrigel, loaded into a NanoFil syringe and stereotactically injected into the striatum (2.5 mm lateral to the bregma at a depth of 3.0 mm) of 8-10 week-old Fox Chase SCID-Beige mice under anesthesia. Tumor growth was longitudinally monitored by magnetic resonance imaging at the Small Animal Imaging Center at the DKFZ. Upon reaching termination criteria, mice were sacrificed and brains were collected after transcardial perfusion. For perfusion, mice were anesthetized by intraperitoneal injection of 800 μl of perfusion solution. After opening the thoracic cavity exposing heart, transcardial perfusion was carried out with 10 ml of ice cold HBSS.

| Molecule | number of proliferating (KI-67+/mCherry+) tumor cells [1] | tumor cell morphology (IHC) (PDX GBMs [2]) | cycling cells (PDX GBMs [3]; PDX vs control) | Activation state (ptalign cell state) (PDX GBMs [3]) | tumor Differentiation (ptalign aligned pseudotime) (PDX GBMs [3]) | tumor Quiescence (ptalign cell state, incl. astroQ) (PDX GBMs [3]) | effects on Quiescence, Activation and cycling cells in PDA (T6 PDA) | survival longer than control, on average (PDX GBMs [4]; SFRP1 induction in PDX GBMs, before the experiment was terminated) [month] | overall survival (PDX GBMs [4]) | overall survival (PDX GBMs [4]; listed as sFRP1) |
| --- | --- | --- | --- | --- | --- | --- | --- | --- | --- | --- |
| O=S(=O)(NC1CCNCC1)c1cc(S(=O)(=O)c2ccccc2)ccc1C(F)(F)F [WAY-316606, 5-(phenylsulfonyl)-N-4-piperidinyl-2-(trifluoromethyl)-benzenesulfonamide] | drastically increases the number of proliferating cells |  |  |  |  |  |  |  |  |  |
| B1 |  | extensive morphological changes; also recorded: dominant astrocyte-like morphology | relative increase in cycling cells | concomitant reduction in the Activation state | without disturbing differentiation; also recorded: not affected | significantly increased quiescence; also recorded: significant increase in tumor Quiescence | consistent yet weaker | 1 | significant increase in overall survival | significantly increased survival |
| B2 |  |  |  | concomitant reduction in activation | without disturbing differentiation | significantly increased quiescence |  |  | significantly increased survival |  |
